Experimental data from patent US20050282743A1, “Molecular interactions in cells” (Arbor Vita Corporation, priority 2001, published 2005).
Ends that are not written are not given here. Peptide text beside a SMILES is read from it. * marks the point of attachment. Biotin = O=C1N[C@H]2[C@H](CS[C@H]2CCCCC(=O)*)N1

Tests used:
[1] = target: T1, PDZ protein (GST-PDZ fusion) (Homo sapiens, UniProt Q9ULD6); experiment: G' assay (10 uM PL peptide), results of TABLE 7 and TABLE 12; assay type: binding; conditions: PDZ KIAA1284, PDZ Domain 1
T1 construct: made in house; host or cells: E. coli (DH5alpha, BL21 or JM109)
T1 sequence (Q9ULD6 1-942): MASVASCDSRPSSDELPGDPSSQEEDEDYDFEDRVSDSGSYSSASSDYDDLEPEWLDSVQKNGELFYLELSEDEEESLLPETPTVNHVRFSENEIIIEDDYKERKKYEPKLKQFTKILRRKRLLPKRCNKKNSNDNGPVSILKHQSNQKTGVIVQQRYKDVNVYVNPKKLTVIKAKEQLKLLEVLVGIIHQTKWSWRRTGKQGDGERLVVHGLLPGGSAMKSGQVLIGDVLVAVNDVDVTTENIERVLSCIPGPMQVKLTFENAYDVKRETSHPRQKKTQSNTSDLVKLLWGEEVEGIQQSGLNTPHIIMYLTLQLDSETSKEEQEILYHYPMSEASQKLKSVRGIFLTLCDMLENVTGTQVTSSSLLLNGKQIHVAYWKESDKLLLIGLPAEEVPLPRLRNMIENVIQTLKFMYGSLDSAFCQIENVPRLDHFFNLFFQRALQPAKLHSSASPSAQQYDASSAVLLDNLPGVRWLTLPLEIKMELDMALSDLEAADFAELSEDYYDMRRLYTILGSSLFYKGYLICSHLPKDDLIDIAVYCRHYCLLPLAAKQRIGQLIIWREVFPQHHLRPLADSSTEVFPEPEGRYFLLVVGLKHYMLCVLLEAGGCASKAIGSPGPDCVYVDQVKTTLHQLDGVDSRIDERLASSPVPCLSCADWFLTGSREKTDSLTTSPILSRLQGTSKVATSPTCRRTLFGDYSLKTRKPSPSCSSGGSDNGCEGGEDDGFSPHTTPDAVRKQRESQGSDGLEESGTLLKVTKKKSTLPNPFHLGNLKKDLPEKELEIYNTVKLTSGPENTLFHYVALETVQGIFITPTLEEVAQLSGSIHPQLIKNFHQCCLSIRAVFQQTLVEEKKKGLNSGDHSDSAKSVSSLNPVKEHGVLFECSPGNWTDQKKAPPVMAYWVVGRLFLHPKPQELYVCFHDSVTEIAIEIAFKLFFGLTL
How it was run: (§1)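 Biotin-PL peptide (N-term label), 10 uM vs GST-PDZ; protein 5 ug/ml by default. A450 nm binned: 1 = 0-1, 2 = 1-2, 3 = 2-3, 4 = 3-4, 5 = >4 on >2 repeats, 0 = no binding.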

[2] = target: T2, PDZ protein (GST-PDZ fusion) (Rattus norvegicus, UniProt Q9JLU4); experiment: as above; assay type: binding; conditions: PDZ rat SHANK 3, PDZ Domain 1
T2 construct: made in house; host or cells: E. coli (DH5alpha, BL21 or JM109)
How it was run: as §1

T2 sequence (Q9JLU4 whole entry, the tested form may be a part): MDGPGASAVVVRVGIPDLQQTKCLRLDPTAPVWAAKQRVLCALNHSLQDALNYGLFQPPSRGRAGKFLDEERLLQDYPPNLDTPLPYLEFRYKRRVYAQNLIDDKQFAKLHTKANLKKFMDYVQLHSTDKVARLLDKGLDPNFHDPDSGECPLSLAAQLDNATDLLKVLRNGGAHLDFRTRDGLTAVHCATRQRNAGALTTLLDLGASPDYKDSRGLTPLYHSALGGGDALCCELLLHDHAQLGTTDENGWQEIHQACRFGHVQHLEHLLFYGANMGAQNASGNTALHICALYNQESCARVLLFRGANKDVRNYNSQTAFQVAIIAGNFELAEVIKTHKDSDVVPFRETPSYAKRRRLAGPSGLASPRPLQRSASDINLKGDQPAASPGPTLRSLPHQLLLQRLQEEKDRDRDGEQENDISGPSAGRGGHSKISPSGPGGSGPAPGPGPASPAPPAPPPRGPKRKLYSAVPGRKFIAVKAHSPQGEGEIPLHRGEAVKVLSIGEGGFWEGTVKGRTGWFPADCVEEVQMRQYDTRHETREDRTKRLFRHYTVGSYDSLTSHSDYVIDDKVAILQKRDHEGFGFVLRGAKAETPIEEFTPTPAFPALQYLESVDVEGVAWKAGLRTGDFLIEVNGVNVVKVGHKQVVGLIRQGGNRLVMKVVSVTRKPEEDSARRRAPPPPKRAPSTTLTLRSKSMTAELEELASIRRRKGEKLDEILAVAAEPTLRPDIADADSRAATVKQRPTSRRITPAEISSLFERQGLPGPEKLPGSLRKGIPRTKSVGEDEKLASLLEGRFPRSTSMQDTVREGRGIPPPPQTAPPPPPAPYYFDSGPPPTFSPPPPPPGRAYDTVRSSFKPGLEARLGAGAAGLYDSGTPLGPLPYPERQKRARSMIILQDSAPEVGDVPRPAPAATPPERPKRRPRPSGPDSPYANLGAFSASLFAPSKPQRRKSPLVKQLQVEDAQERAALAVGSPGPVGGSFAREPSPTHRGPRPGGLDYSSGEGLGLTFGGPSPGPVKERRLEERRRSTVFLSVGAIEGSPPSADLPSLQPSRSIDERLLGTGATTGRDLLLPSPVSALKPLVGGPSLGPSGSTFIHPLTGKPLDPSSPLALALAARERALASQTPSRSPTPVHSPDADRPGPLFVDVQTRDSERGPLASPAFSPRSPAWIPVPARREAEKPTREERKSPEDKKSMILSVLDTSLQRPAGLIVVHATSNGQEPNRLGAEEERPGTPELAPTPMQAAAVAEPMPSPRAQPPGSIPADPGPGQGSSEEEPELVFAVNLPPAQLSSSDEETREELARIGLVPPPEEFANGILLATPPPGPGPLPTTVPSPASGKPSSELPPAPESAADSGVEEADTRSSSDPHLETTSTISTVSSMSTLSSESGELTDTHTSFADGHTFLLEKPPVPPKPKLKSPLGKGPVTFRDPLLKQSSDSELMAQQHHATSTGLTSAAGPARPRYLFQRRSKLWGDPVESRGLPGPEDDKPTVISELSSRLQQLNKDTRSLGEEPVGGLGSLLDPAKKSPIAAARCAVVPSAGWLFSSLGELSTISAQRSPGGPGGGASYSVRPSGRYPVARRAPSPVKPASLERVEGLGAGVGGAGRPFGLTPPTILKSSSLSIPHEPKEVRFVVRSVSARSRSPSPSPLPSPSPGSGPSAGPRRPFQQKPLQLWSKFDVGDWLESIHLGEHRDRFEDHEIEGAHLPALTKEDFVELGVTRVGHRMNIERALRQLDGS

Classification [2] | Compound | Classification [1]
 | A2AA_HUMAN (modified) (Biotin-HDFRRAFKKILARGDRKRIV; not fully specified) | 1 (A450 nm 0-1)
1 (A450 nm 0-1) | CC(C)C[C@H](NC(=O)[C@H](CC(=O)O)NC(=O)[C@H](CO)NC(=O)[C@H](CCC(=O)O)NC(=O)CNC(=O)[C@H](Cc1ccc(O)cc1)NC(=O)[C@H](CC(C)C)NC(=O)[C@H](C)NC(=O)[C@H](CO)NC(=O)[C@H](CO)NC(=O)[C@H](Cc1ccccc1)NC(=O)[C@H](C)NC(=O)[C@H](C)NC(=O)[C@H](Cc1ccc(O)cc1)NC(=O)[C@H](CC(=O)O)NC(=O)[C@H](CC(C)C)NC(=O)[C@H](C)NC(=O)CNC(=O)[C@@H]1CCCN1C(=O)[C@@H](NC(=O)CCCC[C@@H]1SC[C@@H]2NC(=O)N[C@@H]21)C(C)C)C(=O)O [a-actinin 2] (Biotin-VPGALDYAAFSSALYGESDL-OH; C-terminus assumed) | 
4 (A450 nm 3-4) | PPATPSPRLALPAHHNATRL (Biotin-PPATPSPRLALPAHHNATRL) [Na+/Pi cotransporter 2] | 
 | CSCC[C@H](NC(=O)[C@H](C)NC(=O)[C@H](CCCNC(=N)N)NC(=O)CNC(=O)[C@@H](NC(=O)[C@H](Cc1c[nH]c2ccccc12)NC(=O)[C@H](CCCNC(=N)N)NC(=O)CNC(=O)CCCC[C@@H]1SC[C@@H]2NC(=O)N[C@@H]21)[C@@H](C)O)C(=O)N[C@@H](CO)C(=O)N[C@@H](C)C(=O)N[C@@H](Cc1c[nH]c2ccccc12)C(=O)N[C@@H](CCCCN)C(=O)N1CCC[C@H]1C(=O)N[C@H](C(=O)N[C@@H](CCCNC(=N)N)C(=O)N[C@@H](CCCNC(=N)N)C(=O)N[C@@H](CCC(=O)O)C(=O)N[C@H](C(=O)N[C@@H](CCC(=O)O)C(=O)N[C@H](C(=O)O)C(C)C)[C@@H](C)O)[C@@H](C)O [HPV E6 #35 (modified)] (Biotin-GRWTGRAMSAWKPTRRETEV-OH; C-terminus assumed) | 1 (A450 nm 0-1)
